In data set [1] the test system is HeLa Kyoto. Description: solubility in G1/S (NP-40 vs SDS abundance) (log2 ratio); higher = more soluble. The conditions noted are these: cell cycle stage: G1/S.
Data set [2] relates to HeLa Kyoto. In words: solubility change mitosis vs G1/S (difference of NP-40 vs SDS log2 ratios) (log2 ratio difference); higher = more soluble in mitosis.
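Wherever solubility change mitosis vs G1/S (difference of NP-40 vs SDS log2 ratios) is given: synchronized HeLa Kyoto cells (double thymidine block for G1/S, nocodazole release for mitosis), protein amounts in NP-40 versus SDS lysates quantified by mass spectrometry, three biological replicates.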
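Wherever solubility in G1/S (NP-40 vs SDS abundance) is given: HeLa Kyoto cells arrested at G1/S by double thymidine block, proteins quantified by TMT10plex mass spectrometry in mild NP-40 versus SDS extracts, three biological replicates.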

As to “MEKYVRLQKIGEGSFGKAILVKSTEDGRQYVIKEINISRMSSKEREESRREVAVLANMKHPNIVQYRESFEENGSLYIVMDYCEGGDLFKRINAQKGVLFQEDQILDWFVQICLALKHVHDRKILHRDIKSQNIFLTKDGTVQLGDFGIARVLNSTVELARTCIGTPYYLSPEICENKPYNNKSDIWALGCVLYELCTLKHAFEAGSMKNLVLKIISGSFPPVSLHYSYDLRSLVSQLFKRNPRDRPSVNSILEKGFIAKRIEKFLSPQLIAEEFCLKTFSKFGSQPIPAKRPASGQNSISVMPAQKITKPAAKYGIPLAYKKYGDKKLHEKKPLQKHKQAHQTPEKRVNTGEERRKISEEAARKRRLEFIEKEKKQKDQIISLMKAEQMKRQEKERLERINRAREQGWRNVLSAGGSGEVKAPFLGSGGTIAPSSFSSRGQYEHYHAIFDQMQQQRAEDNEAKWKREIYGRGLPERGILPGVRPGFPYGAAGHHHFPDADDIRKTLKRLKAVSKQANANRQKGQLAVERAKQVEEFLQRKREAMQNKARAEGHMVYLARLRQIRLQNFNERQQIKAKLRGEKKEANHSEGQEGSEEADMRRKKIESLKAHANARAAVLKEQLERKRKEAYEREKKVWEEHLVAKGVKSSDVSPPLGQHETGGSPSKQQMRSVISVTSALKEVGVDSSLTDTRETSEEMQKTNNAISSKREILRRLNENLKAQEDEKGKQNLSDTFEINVHEDAKEHEKEKSVSSDRKKWEAGGQLVIPLDELTLDTSFSTTERHTVGEVIKLGPNGSPRRAWGKSPTDSVLKILGEAELQLQTELLENTTIRSEISPEGEKYKPLITGEKKVQCISHEINPSAIVDSPVETKSPEFSEASPQMSLKLEGNLEEPDDLETEILQEPSGTNKDESLPCTITDVWISEEKETKETQSADRITIQENEVSEDGVSSTVDQLSDIHIEPGTNDSQHSKCDVDKSVQPEPFFHKVVHSEHLNLVPQVQSVQCSPEESFAFRSHSHLPPKNKNKNSLLIGLSTGLFDANNPKMLRTCSLPDLSKLFRTLMDVPTVGDVRQDNLEIDEIEDENIKEGPSDSEDIVFEETDTDLQELQASMEQLLREQPGEEYSEEEESVLKNSDVEPTANGTDVADEDDNPSSESALNEEWHSDNSDGEIASECECDSVFNHLEELRLHLEQEMGFEKFFEVYEKIKAIHEDEDENIEICSKIVQNILGNEHQHLYAKILHLVMADGAYQEDNDE [NEK1]”, in the data set with HeLa Kyoto [1], the “solubility in G1/S (log2)” value was -0.156. Further, in the data set on HeLa Kyoto [2], the “solubility change mitosis (log2)” value was -0.0529.

On to “MERAVRVESGVLVGVVCLLLACPATATGPEVAQPEVDTTLGRVRGRQVGVKGTDRLVNVFLGIPFAQPPLGPDRFSAPHPAQPWEGVRDASTAPPMCLQDVESMNSSRFVLNGKQQIFSVSEDCLVLNVYSPAEVPAGSGRPVMVWVHGGALITGAATSYDGSALAAYGDVVVVTVQYRLGVLGFFSTGDEHAPGNQGFLDVVAALRWVQENIAPFGGDLNCVTVFGGSAGGSIISGLVLSPVAAGLFHRAITQSGVITTPGIIDSHPWPLAQKIANTLACSSSSPAEMVQCLQQKEGEELVLSKKLKNTIYPLTVDGTVFPKSPKELLKEKPFHSVPFLMGVNNHEFSWLIPRGWGLLDTMEQMSREDMLAISTPVLTSLDVPPEMMPTVIDEYLGSNSDAQAKCQAFQEFMGDVFINVPTVSFSRYLRDSGSPVFFYEFQHRPSSFAKIKPAWVKADHGAEGAFVFGGPFLMDESSRLAFPEATEEEKQLSLTMMAQWTHFARTGDPNSKALPPWPQFNQAEQYLEINPVPRAGQKFREAWMQFWSETLPSKIQQWHQKQKNRKAQEDL [CES3]”, for which the “solubility in G1/S (log2)” value in the data set on HeLa Kyoto [1] was 0.261. For the same sequence, in the data set with HeLa Kyoto [2], the “solubility change mitosis (log2)” value was -0.166.

Consider “MSYRRELEKYRDLDEDEILGALTEEELRTLENELDELDPDNALLPAGLRQKDQTTKAPTGPFKREELLDHLEKQAKEFKDREDLVPYTGEKRGKVWVPKQKPLDPVLESVTLEPELEEALANASDAELCDIAAILGMHTLMSNQQYYQALSSSSIMNKEGLNSVIKPTQYKPVPDEEPNSTDVEETLERIKNNDPKLEEVNLNNIRNIPIPTLKAYAEALKENSYVKKFSIVGTRSNDPVAYALAEMLKENKVLKTLNVESNFISGAGILRLVEALPYNTSLVEMKIDNQSQPLGNKVEMEIVSMLEKNATLLKFGYHFTQQGPRLRASNAMMNNNDLVRKRRLADLTGPIIPKCRSGV [TMOD1]”, for which, in the data set with HeLa Kyoto [1], the “solubility in G1/S (log2)” value worked out at 0.122. In addition, the “solubility change mitosis (log2)” value with HeLa Kyoto [2] is 0.357.

As for “MGDAGSERSKAPSLPPRCPCGFWGSSKTMNLCSKCFADFQKKQPDDDSAPSTSNSQSDLFSEETTSDNNNTSITTPTLSPSQQPLPTELNVTSPSKEECGPCTDTAHVSLITPTKRSCGTDSQSENEASPVKRPRLLENTERSEETSRSKQKSRRRCFQCQTKLELVQQELGSCRCGYVFCMLHRLPEQHDCTFDHMGRGREEAIMKMVKLDRKVGRSCQRIGEGCS [ZFAND3]”, in the data set with HeLa Kyoto [1], the “solubility in G1/S (log2)” value was 0.216. Further, the “solubility change mitosis (log2)” value with HeLa Kyoto [2] was -0.0341.

Consider “MAALGHLAGEAAAAPGPGTPCASRGARLPGPVSSARNPSTVCLCPEQPTCSNADSRAHPLGDEGGTASKKQKNKKKTRNRASVANGGEKASEKLAPEEVPLSAEAQAQQLAQELAWCVEQLELGLKRQKPTPKQKEQAIGAIRTLRSKRTPLPRKRQLMHSLFGDYRAQMEAEWREALRALRAAAYSAQVQPVDGATRKKSQRVCRPRSIWRAKATLDMPDEEFRFNFF [C8ORF33]”, for which the “solubility in G1/S (log2)” value in the data set on HeLa Kyoto [1] was found to be 0.306. Further, in the data set with HeLa Kyoto [2], the “solubility change mitosis (log2)” value was found to be 0.747.

As to “MKKSYSGGTRTSSGRLRRLGDSSGPALKRSFEVEEVETPNSTPPRRVQTPLLRATVASSTQKFQDLGVKNSEPSARHVDSLSQRSPKASLRRVELSGPKAAEPVSRRTELSIDISSKQVENAGAIGPSRFGLKRAEVLGHKTPEPAPRRTEITIVKPQESAHRRMEPPASKVPEVPTAPATDAAPKRVEIQMPKPAEAPTAPSPAQTLENSEPAPVSQLQSRLEPKPQPPVAEATPRSQEATEAAPSCVGDMADTPRDAGLKQAPASRNEKAPVDFGYVGIDSILEQMRRKAMKQGFEFNIMVVGQSGLGKSTLINTLFKSKISRKSVQPTSEERIPKTIEIKSITHDIEEKGVRMKLTVIDTPGFGDHINNENCWQPIMKFINDQYEKYLQEEVNINRKKRIPDTRVHCCLYFIPATGHSLRPLDIEFMKRLSKVVNIVPVIAKADTLTLEERVHFKQRITADLLSNGIDVYPQKEFDEDSEDRLVNEKFREMIPFAVVGSDHEYQVNGKRILGRKTKWGTIEVENTTHCEFAYLRDLLIRTHMQNIKDITSSIHFEAYRVKRLNEGSSAMANGMEEKEPEAPEM [SEPT9]”, the “solubility in G1/S (log2)” value in the data set with HeLa Kyoto [1] is 0.198. Moreover, the “solubility change mitosis (log2)” value in the data set with HeLa Kyoto [2] is -0.0335.

“MASNSSSCPTPGGGHLNGYPVPPYAFFFPPMLGGLSPPGALTTLQHQLPVSGYSTPSPATIETQSSSSEEIVPSPPSPPPLPRIYKPCFVCQDKSSGYHYGVSACEGCKGFFRRSIQKNMVYTCHRDKNCIINKVTRNRCQYCRLQKCFEVGMSKESVRNDRNKKKKEVPKPECSESYTLTPEVGELIEKVRKAHQETFPALCQLGKYTTNNSSEQRVSLDIDLWDKFSELSTKCIIKTVEFAKQLPGFTTLTIADQITLLKAACLDILILRICTRYTPEQDTMTFSDGLTLNRTQMHNAGFGPLTDLVFAFANQLLPLEMDDAETGLLSAICLICGDRQDLEQPDRVDMLQEPLLEALKVYVRKRRPSRPHMFPKMLMKITDLRSISAKGAERVITLKMEIPGSMPPLIQEMLENSEGLDTLSGQPGGGGRDGGGLAPPPGSCSPSLSPSSNRSSPATHSP [RARA]”: in the data set with HeLa Kyoto [1], the “solubility in G1/S (log2)” value stood at 0.18. Moreover, the “solubility change mitosis (log2)” value in the data set on HeLa Kyoto [2] was -0.153.

For “MMLSRAKPAVGRGVQHTDKRKKKGRKIPKLEELLSKRDFTGAITLLEFKRHVGEEEEDTNLWIGYCAFHLGDYKRALEEYENATKEENCNSEVWVNLACTYFFLGMYKQAEAAGFKASKSRLQNRLLFHLAHKFNDEKKLMSFHQNLQDVTEDQLSLASIHYMRSHYQEAIDIYKRILLDNREYLALNVYVALCYYKLDYYDVSQEVLAVYLQQIPDSTIALNLKACNHFRLYNGRAAEAELKSLMDNASSSFEFAKELIRHNLVVFRGGEGALQVLPPLVDVIPEARLNLVIYYLRQDDVQEAYNLIKDLEPTTPQEYILKGVVNAALGQEMGSRDHMKIAQQFFQLVGGSASECDTIPGRQCMASCFFLLKQFDDVLIYLNSFKSYFYNDDIFNFNYAQAKAATGNTSEGEEAFLLIQSEKMKNDYIYLSWLARCYIMNKKPRLAWELYLKMETSGESFSLLQLIANDCYKMGQFYYSAKAFDVLERLDPNPEYWEGKRGACVGIFQMIIAGREPKETLREVLHLLRSTGNTQVEYMIRIMKKWAKENRVSI [TTC26]”, the “solubility in G1/S (log2)” value with HeLa Kyoto [1] was -0.122. In addition, the “solubility change mitosis (log2)” value in the data set on HeLa Kyoto [2] is -0.0547.

Consider “MEPQEERETQVAAWLKKIFGDHPIPQYEVNPRTTEILHHLSERNRVRDRDVYLVIEDLKQKASEYESEAKYLQDLLMESVNFSPANLSSTGSRYLNALVDSAVALETKDTSLASFIPAVNDLTSDLFRTKSKSEEIKIELEKLEKNLTATLVLEKCLQEDVKKAELHLSTERAKVDNRRQNMDFLKAKSEEFRFGIKAAEEQLSARGMDASLSHQSLVALSEKLARLKQQTIPLKKKLESYLDLMPNPSLAQVKIEEAKRELDSIEAELTRRVDMMEL [HAUS1]”, for which, in the data set on HeLa Kyoto [1], the “solubility in G1/S (log2)” value stood at 0.463. Moreover, the “solubility change mitosis (log2)” value in the data set on HeLa Kyoto [2] turned out to be 0.128.

Turning to “MAAVAMTPNPVQTLQEEAVCAICLDYFTDPVSIGCGHNFCRVCVTQLWGGEDEEDRDELDREEEEEDGEEEEVEAVGAGAGWDTPMRDEDYEGDMEEEVEEEEEGVFWTSGMSRSSWDNMDYVWEEEDEEEDLDYYLGDMEEEDLRGEDEEDEEEVLEEVEEEDLDPVTPLPPPPAPRRCFTCPQCRKSFPRRSFRPNLQLANMVQVIRQMHPTPGRGSRVTDQGICPKHQEALKLFCEVDEEAICVVCRESRSHKQHSVVPLEEVVQEYKAKLQGHVEPLRKHLEAVQKMKAKEERRVTELKSQMKSELAAVASEFGRLTRFLAEEQAGLERRLREMHEAQLGRAGAAASRLAEQAAQLSRLLAEAQERSQQGGLRLLQDIKETFNRCEEVQLQPPEVWSPDPCQPHSHDFLTDAIVRKMSRMFCQAARVDLTLDPDTAHPALMLSPDRRGVRLAERRQEVADHPKRFSADCCVLGAQGFRSGRHYWEVEVGGRRGWAVGAARESTHHKEKVGPGGSSVGSGDASSSRHHHRRRRLHLPQQPLLQREVWCVGTNGKRYQAQSSTEQTLLSPSEKPRRFGVYLDYEAGRLGFYNAETLAHVHTFSAAFLGERVFPFFRVLSKGTRIKLCP [TRIM41]”, the “solubility in G1/S (log2)” value in the data set on HeLa Kyoto [1] is -0.886. For the same sequence, in the data set on HeLa Kyoto [2], the “solubility change mitosis (log2)” value amounted to 0.254.

With “MAAPTPARPVLTHLLVALFGMGSWAAVNGIWVELPVVVKELPEGWSLPSYVSVLVALGNLGLLVVTLWRRLAPGKDEQVPIRVVQVLGMVGTALLASLWHHVAPVAGQLHSVAFLALAFVLALACCASNVTFLPFLSHLPPRFLRSFFLGQGLSALLPCVLALVQGVGRLECPPAPINGTPGPPLDFLERFPASTFFWALTALLVASAAAFQGLLLLLPPPPSVPTGELGSGLQVGAPGAEEEVEESSPLQEPPSQAAGTTPGPDPKAYQLLSARSACLLGLLAATNALTNGVLPAVQSFSCLPYGRLAYHLAVVLGSAANPLACFLAMGVLCRSLAGLGGLSLLGVFCGGYLMALAVLSPCPPLVGTSAGVVLVVLSWVLCLGVFSYVKVAASSLLHGGGRPALLAAGVAIQVGSLLGAVAMFPPTSIYHVFHSRKDCADPCDS [SLC52A2]”, the “solubility in G1/S (log2)” value with HeLa Kyoto [1] is -0.143. The “solubility change mitosis (log2)” value in the data set with HeLa Kyoto [2] was 0.202.

For the origin of these results see the supplement of paper PMC5998384.
